Data from IntAct's records for PubMed 16427013.

B1: Protein NRD1 (Saccharomyces cerevisiae), P53617 (parent)
chain: MQQDDDFQNFVATLESFKDLKSGISGSRIKKLTTYALDHIDIESKIISLIIDYSRLCPDSHKLGSLYIIDSIGRAYLDETRSNSNSSSNKPGTCAHAINTLGEVIQELLSDAIAKSNQDHKEKIRMLLDIWDRSGLFQKSYLNAIRSKCFAMDISNNTANTASQQLSLDPKQRSKQILSNLKKSPPLNLNISLPTDLTSTDPAKQQAALFQVIAALQKHFKTLPSHTSVGTVAPPQAHTITEYGSRRERERERERYNSRRNRSRSPPAPFSQPSTGRKDRYPSVAQDQYSIGAPNTTFGTNNHHLYPDELNVSNNPHYRPKPVSYDSTLPPDHIKVYSRTLFIGGVPLNMKEWDLANVLKPFAEVQSVILNNSRKHAFVKVYSRHEAENVLQNFNKDGALPLRTRWGVGFGPRDCCDYQHGYSIIPMHRLTDADKKWSVSAQWGGTSGQPLVTGIVFEEPDIIVGEGVSSKAISQKMPTDSGRNGPRSGKPNKSGSISSISPVPYGNAPLASPPPQQYVQPMMQQPYGYAPNQPLPSQGPAAAAPPVPQQQFDPTAQLNSLMNMLNQQQQQQQQS
partner: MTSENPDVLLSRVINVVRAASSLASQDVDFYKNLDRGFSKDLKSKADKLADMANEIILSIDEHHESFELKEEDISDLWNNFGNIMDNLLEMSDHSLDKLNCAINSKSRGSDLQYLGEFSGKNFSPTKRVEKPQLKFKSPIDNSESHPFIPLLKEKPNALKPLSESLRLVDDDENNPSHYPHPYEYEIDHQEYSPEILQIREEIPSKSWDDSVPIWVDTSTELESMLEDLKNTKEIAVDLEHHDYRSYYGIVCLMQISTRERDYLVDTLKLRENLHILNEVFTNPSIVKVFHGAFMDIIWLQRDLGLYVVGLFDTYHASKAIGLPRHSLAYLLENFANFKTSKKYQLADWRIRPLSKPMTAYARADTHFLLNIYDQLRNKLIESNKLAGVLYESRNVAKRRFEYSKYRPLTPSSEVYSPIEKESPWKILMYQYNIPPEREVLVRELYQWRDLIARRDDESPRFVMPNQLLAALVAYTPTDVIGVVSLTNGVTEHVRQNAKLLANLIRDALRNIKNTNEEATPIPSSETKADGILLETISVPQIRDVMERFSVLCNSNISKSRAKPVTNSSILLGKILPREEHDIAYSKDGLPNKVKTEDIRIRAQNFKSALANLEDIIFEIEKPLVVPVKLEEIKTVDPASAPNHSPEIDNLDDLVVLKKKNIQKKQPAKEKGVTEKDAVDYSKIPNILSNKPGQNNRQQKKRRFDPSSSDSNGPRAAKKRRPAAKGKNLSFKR

Variants of: B1
Settings: with rrp6_yeast RRP6, Q12149

Row | Variant | effect of a mutation on the interaction
1 | V379R | with no effect
